Data published in patent publication US20180346602A1.

How the values were obtained:
[1] = molecular target: anti-IGF-1R antibody (IgG1 subclass with mutations I253A/H310A/H435A) (human) [IgG part: P01857]; test: sandwich ELISA assay B; capture on SA plate; tracer M1.7.10-Dig; analyte 100 ng/mL
[2] = molecular target: anti-VEGF/ANG2 antibody (IgG1 subclass with mutations P329G/L234A/L235A) (human) [IgG part: P01857]; test: as above
[3] = molecular target: anti-VEGF/ANG2 antibody (IgG1 subclass with mutations P329G/L234A/L235A/I253A/H310A/H435A) (human) [IgG part: P01857]; test: as above
[4] = molecular target: anti-IGF-1R antibody (IgG1 subclass with mutations I253A/H310A/H435A) (human) [IgG part: P01857]; test: sandwich ELISA assay C; capture on SA plate; tracer FcγRI-Dig; analyte 13 ng/mL
[5] = molecular target: anti-VEGF/ANG2 antibody (IgG1 subclass with mutations P329G/L234A/L235A) (human) [IgG part: P01857]; test: as above
[6] = molecular target: anti-VEGF/ANG2 antibody (IgG1 subclass with mutations P329G/L234A/L235A/I253A/H310A/H435A) (human) [IgG part: P01857]; test: as above
[7] = molecular target: anti-P-Selectin antibody (IgG4 subclass with mutations S228P/L235E) (human) [IgG part: P01861]; test: as above
[8] = molecular target: anti-IGF-1R antibody (IgG1 subclass with mutations I253A/H310A/H435A) (human) [IgG part: P01857]; test: sandwich ELISA assay C; capture on SA plate; tracer FcγRI-Dig; analyte 0 ng/mL (blank)
[9] = molecular target: anti-VEGF/ANG2 antibody (IgG1 subclass with mutations P329G/L234A/L235A) (human) [IgG part: P01857]; test: as above
[10] = molecular target: anti-VEGF/ANG2 antibody (IgG1 subclass with mutations P329G/L234A/L235A/I253A/H310A/H435A) (human) [IgG part: P01857]; test: as above
[11] = molecular target: anti-P-Selectin antibody (IgG4 subclass with mutations S228P/L235E) (human) [IgG part: P01861]; test: as above
[12] = molecular target: anti-P-Selectin antibody (IgG4 subclass with mutations S228P/L235E) [IgG part: P01861]; test: sandwich ELISA assay A; capture M1.7.10-Bi; antibody 4 at 6 ng/mL
[13] = molecular target: anti-VEGF/ANG2 antibody (wild-type IgG1 subclass) [IgG part: P01857]; test: sandwich ELISA assay A; capture M1.7.10-Bi; antibody 5 at 0 ng/mL (blank)
[14] = molecular target: anti-VEGF/ANG2 antibody (IgG1 subclass with mutations P329G/L234A/L235A/I253A/H310A/H435A) [IgG part: P01857]; test: sandwich ELISA assay A; capture M1.7.10-Bi; antibody 1 at 25 ng/mL
[15] = molecular target: anti-VEGF/ANG2 antibody (IgG1 subclass with mutations P329G/L234A/L235A/I253A/H310A/H435A) [IgG part: P01857]; test: sandwich ELISA assay A; capture M1.7.10-Bi; antibody 1 at 0 ng/mL (blank)
[16] = molecular target: anti-VEGF/ANG2 antibody (wild-type IgG1 subclass) [IgG part: P01857]; test: sandwich ELISA assay A; capture M1.7.10-Bi; antibody 5 at 25 ng/mL
[17] = molecular target: anti-VEGF/ANG2 antibody (IgG1 subclass with mutations P329G/L234A/L235A/I253A/H310A/H435A) [IgG part: P01857]; test: sandwich ELISA assay A; capture M1.7.10-Bi; antibody 1 at 50 ng/mL
[18] = molecular target: anti-IGF-1R antibody (IgG1 subclass with mutations I253A/H310A/H435A) [IgG part: P01857]; test: sandwich ELISA assay A; capture M1.7.10-Bi; antibody 3 at 50 ng/mL
[19] = molecular target: anti-IGF-1R antibody (IgG1 subclass with mutations I253A/H310A/H435A) (human) [IgG part: P01857]; test: sandwich ELISA assay C; capture on SA plate; tracer FcγRI-Dig; analyte 2 ng/mL
[20] = molecular target: anti-VEGF/ANG2 antibody (IgG1 subclass with mutations P329G/L234A/L235A) (human) [IgG part: P01857]; test: as above
[21] = molecular target: anti-VEGF/ANG2 antibody (IgG1 subclass with mutations P329G/L234A/L235A/I253A/H310A/H435A) (human) [IgG part: P01857]; test: as above
[22] = molecular target: anti-P-Selectin antibody (IgG4 subclass with mutations S228P/L235E) (human) [IgG part: P01861]; test: as above
[23] = molecular target: anti-VEGF/ANG2 antibody (IgG1 subclass with mutations P329G/L234A/L235A/I253A/H310A/H435A) [IgG part: P01857]; test: sandwich ELISA assay A; capture M1.7.10-Bi; antibody 1 at 3 ng/mL
[24] = molecular target: anti-VEGF/ANG2 antibody (wild-type IgG1 subclass) [IgG part: P01857]; test: sandwich ELISA assay A; capture M1.7.10-Bi; antibody 5 at 13 ng/mL
[25] = molecular target: anti-VEGF/ANG2 antibody (IgG1 subclass with mutations P329G/L234A/L235A) [IgG part: P01857]; test: sandwich ELISA assay A; capture M1.7.10-Bi; antibody 2 at 25 ng/mL

signal [OD405 nm] [1] [OD405 nm] | signal [OD405 nm] [2] [OD405 nm] | signal [OD405 nm] [3] [OD405 nm] | signal [OD405 nm] [4] [OD405 nm] | signal [OD405 nm] [5] [OD405 nm] | signal [OD405 nm] [6] [OD405 nm] | signal [OD405 nm] [7] [OD405 nm] | signal [OD405 nm] [8] [OD405 nm] | signal [OD405 nm] [9] [OD405 nm] | signal [OD405 nm] [10] [OD405 nm] | signal [OD405 nm] [11] [OD405 nm] | signal [OD405 nm] [12] [OD405 nm] | signal [OD405 nm] [13] [OD405 nm] | signal [OD405 nm] [14] [OD405 nm] | signal [OD405 nm] [15] [OD405 nm] | signal [OD405 nm] [16] [OD405 nm] | signal [OD405 nm] [17] [OD405 nm] | signal [OD405 nm] [18] [OD405 nm] | signal [OD405 nm] [19] [OD405 nm] | signal [OD405 nm] [20] [OD405 nm] | Binder | other results
0.05 | 0.216 | 0.035 | 1.21 | 1.23 | 1.14 | 1.16 | 1.22 | 1.23 | 1.18 | 1.19 | 0.036 | 0.036 | 0.04 | 0.044 | 0.037 | 0.043 | 0.044 | 1.26 | 1.22 | anti-variant (human) Fc-region antibody M1.3.17 (antibody, V domains shown) VH: EVKLLESGGGLVQPGGSLKLSCAASGIDFRRYWMNWVRQAPGKGLEWIGEIDPDSSTINYTPSLKDKFIISRDNAKNTMYLQMRKVRSEDTALYYCARPYDYGAWFAYWGQGTLVTVSA VL: QAVVTQESALTTSPGETVTLTCRSTTGAVTTSNYANWVQEKPDHLFTGLIGGTNKRAPGVPARFSGSLIGDKAALTITGAQTEDEAIYFCALWYSDHWVFGGGTKLTVL | signal [OD405 nm] [21]: 1.17 OD405 nm; signal [OD405 nm] [22]: 1.19 OD405 nm; signal [OD405 nm] [23]: 0.038 OD405 nm; signal [OD405 nm] [24]: 0.038 OD405 nm; signal [OD405 nm] [25]: 2.93 OD405 nm
0.098 | 3.23 | 0.057 | 0.058 | 0.06 | 0.085 | 0.066 | 0.086 | 0.092 | 0.076 | 0.076 | 0.045 | 0.041 | 0.047 | 0.05 | 0.039 | 0.051 | 0.048 | 0.074 | 0.093 | anti-variant (human) Fc-region antibody M1.7.24 (antibody, V domains shown) VH: EVKLLESGGGLVQPGGSLKLSCAASGFDFSRYWMNWVRQAPGKGLEWIGEITPDSSTINYTPSLKDKFIISRDNAKNTLYLQMIKVRSEDTALYYCVRPYDYGAWFASWGQGTLVTVSA VL: QAVVTQESALTTSPGETVTLTCRSSTGAVTTSNYANWVQEKPDHLFTGLIGGTNKRAPGVPARFSGSLIGDKAALTITGAQTEDEAIYFCALWYSNHWVFGGGTKLTVL | signal [OD405 nm] [21]: 0.085 OD405 nm; signal [OD405 nm] [22]: 0.056 OD405 nm; signal [OD405 nm] [23]: 0.046 OD405 nm; signal [OD405 nm] [24]: 0.042 OD405 nm; signal [OD405 nm] [25]: 2.61 OD405 nm
2.9 | 0.21 | 0.052 | 0.175 | 0.061 | 0.064 | 0.052 | 0.069 | 0.064 | 0.077 | 0.077 | 0.041 | 0.042 | 0.061 | 0.058 | 0.053 | 0.06 | 2.74 | 0.082 | 0.072 | anti-AAA variant Fc-region antibody M1.6.22 (antibody, V domains shown) VH: EVQLVESGGDLVKPGGSLKLSCAASGFTFSSYGMSWVRQTPDKRLEWVATISSGGSYIYYPDSVKGRFTISRDNAKNTLYLQMSSLKSEDTAMYYCARLGMITTGYAMDYWGQGTSVTVSS VL: DVLMTQTPLSLPVSLGDQASISCRSSQTIVHSTGHTYLEWFLQKPGQSPKLLIYKVSNRFSGVPDRFSGSGSGTDFTLKISRVEAEDLGVYYCFQGSHVPYTFGGGTKLEIK | signal [OD405 nm] [21]: 0.077 OD405 nm; signal [OD405 nm] [22]: 0.067 OD405 nm; signal [OD405 nm] [23]: 0.057 OD405 nm; signal [OD405 nm] [24]: 0.045 OD405 nm; signal [OD405 nm] [25]: 0.06 OD405 nm
